Measurements as given in the RNAGym collection of RNA variant scans (doi:10.7554/elife.80360).

B1: CPEB3 Ribozyme (parent)
chain: GGGGGCCACAGCAGAAGCGUUCACGUCGCGGCCCCUGUCAGAUUCUGGUGAAUCUGCGAAUUCUGCUGU

Variants of: B1
Test: self-cleavage, relative activity (ratio to wild type); higher = more cleavage; co-transcriptional

Going from G48A to G47U G50A, the self-cleavage rises from 1 to 1.01.

First: G47U G50C
Second: G47A C57A
The self-cleavage of the first is higher: 1 for the first, 0.347 for the second.

Going from G47A C57U to G47U U69A, the self-cleavage rises from 0.321 to 1.02.

Compared with G47U U69C, G47U U69G is lower in self-cleavage: 1.06 for the first, 1.05 for the second.

Compared with G47C G68U, G47C G68A is higher in self-cleavage: 0.994 for the first, 1 for the second.

Compared with G47C G68C, U46G U49A is lower in self-cleavage: 1.02 for the first, 0.972 for the second.

Going from U46G U49C to G48A C63A, the self-cleavage falls from 1.04 to 0.932.

Compared with G48A C63G, G48A C63U is higher in self-cleavage: 0.898 for the first, 0.959 for the second.

Compared with G47A U55C, G47A U55G is lower in self-cleavage: 0.966 for the first, 0.91 for the second.

G47A G48C and G47A G48A are the same in self-cleavage: 1.03 for the first, 1.03 for the second.

Compared with U46G A52U, U46C G68C is higher in self-cleavage: 0.981 for the first, 0.985 for the second.

First: U46C G68A
Second: G47U U49G
The self-cleavage of the first is higher: 1 for the first, 0.989 for the second.

Going from G47C U64G to G47C U64A, the self-cleavage rises from 0.938 to 0.979.

First: G47U U67C
Second: C45U U64G
The self-cleavage of the first is higher: 1 for the first, 0.854 for the second.

Going from U46G C54G to G48A U61C, the self-cleavage falls from 0.907 to 0.852.

First: G48A U61A
Second: G48A U61G
The self-cleavage of the first is higher: 0.957 for the first, 0.919 for the second.

Going from G47U U64G to U46G U53A, the self-cleavage rises from 0.913 to 1.01.

First: U46G U53G
Second: U46G U53C
The self-cleavage of the first is lower: 0.918 for the first, 0.978 for the second.

First: G47U A51U
Second: G47U A51C
The self-cleavage of the first is higher: 1.01 for the first, 0.997 for the second.

Compared with G47U U55G, G47U U55A is higher in self-cleavage: 0.937 for the first, 0.961 for the second.

Compared with G47C C54G, G47C C54U is higher in self-cleavage: 0.959 for the first, 0.987 for the second.

Compared with U46A U67C, U46A U67G is higher in self-cleavage: 1.01 for the first, 1.03 for the second.

First: G47U U62C
Second: G47U U62G
The self-cleavage of the first is higher: 0.912 for the first, 0.903 for the second.

Going from G47C G48A to U46C C63U, the self-cleavage falls from 0.988 to 0.983.

Going from U46C C63G to U46C C63A, the self-cleavage falls from 0.796 to 0.771.

First: U46C G65A
Second: U46C G65C
The self-cleavage of the first is higher: 0.893 for the first, 0.615 for the second.

Compared with G47C C66A, G47C C66G is higher in self-cleavage: 0.897 for the first, 0.91 for the second.

First: G47C U53C
Second: G47C U53G
The self-cleavage of the first is higher: 0.992 for the first, 0.911 for the second.

Compared with G47C U53A, U46C U55G is lower in self-cleavage: 0.967 for the first, 0.768 for the second.

Going from U46C U55C to U46C U55A, the self-cleavage rises from 0.701 to 0.773.

Going from G47U G48C to U46C G50A, the self-cleavage falls from 1.02 to 0.974.

Going from U46C G50C to G47A G68A, the self-cleavage falls from 1.04 to 1.01.

Compared with G47A G68U, U46G A51G is lower in self-cleavage: 1.01 for the first, 0.618 for the second.

First: U46G A51C
Second: U46G A51U
The self-cleavage of the first is lower: 0.949 for the first, 1 for the second.

Compared with G48A G58A, G48A A51U is higher in self-cleavage: 0.961 for the first, 0.989 for the second.

Going from G48A A51C to U46A G58A, the self-cleavage falls from 1 to 0.93.

Compared with U46A G58U, U46A G58C is lower in self-cleavage: 0.988 for the first, 0.961 for the second.

First: U46G A59G
Second: U46G A59U
The self-cleavage of the first is higher: 0.965 for the first, 0.842 for the second.

Going from U46C U61A to G47U U53C, the self-cleavage rises from 0.95 to 1.02.

Compared with G47U U53G, C45U U69A is higher in self-cleavage: 0.991 for the first, 1.05 for the second.

First: C45U U69C
Second: G47A U62A
The self-cleavage of the first is higher: 1.08 for the first, 0.976 for the second.

Compared with G47A U62C, G47C A59C is lower in self-cleavage: 0.933 for the first, 0.837 for the second.

Compared with G47C A59U, G47C A59G is higher in self-cleavage: 0.863 for the first, 0.958 for the second.

Going from U46C A59G to U46C A59U, the self-cleavage falls from 1.03 to 0.847.

Compared with G48A G56C, G48A G56A is higher in self-cleavage: 0.949 for the first, 0.992 for the second.

Compared with U46A C66G, U46A C66U is higher in self-cleavage: 0.961 for the first, 0.972 for the second.

First: U46A C66A
Second: G48C A60C
The self-cleavage of the first is higher: 0.924 for the first, 0.239 for the second.

Going from G48C A60U to U46A G48C, the self-cleavage rises from 0.552 to 1.01.

Going from U46A G48A to U46A G48U, the self-cleavage falls from 1.01 to 0.991.

Going from G47U G65C to G48C C57G, the self-cleavage falls from 0.736 to 0.285.

First: G48C C57A
Second: G48A C54U
The self-cleavage of the first is lower: 0.309 for the first, 1.01 for the second.

Going from G48A C54A to G48A C54G, the self-cleavage rises from 0.998 to 1.02.

First: G47U C66A
Second: G47U C66G
The self-cleavage of the first is higher: 0.933 for the first, 0.914 for the second.

Compared with G47U C66U, G47A U69A is higher in self-cleavage: 1.02 for the first, 1.03 for the second.

Going from G47A U69G to U46C G47A, the self-cleavage falls from 1.05 to 0.682.

U46C G47C and U46A C63U are the same in self-cleavage: 1.02 for the first, 1.02 for the second.

First: G48A U49C
Second: G48A U49G
The self-cleavage of the first is lower: 0.959 for the first, 1.01 for the second.

Compared with G48A U69A, G48A U69C is higher in self-cleavage: 1.02 for the first, 1.06 for the second.

Compared with G47A U64C, G47A U64A is lower in self-cleavage: 0.974 for the first, 0.958 for the second.

First: U46A U64A
Second: U46A U64G
The self-cleavage of the first is lower: 0.955 for the first, 0.964 for the second.

First: G47C A51C
Second: U46G U62C
The self-cleavage of the first is higher: 1.04 for the first, 0.993 for the second.

First: U46G U62A
Second: U46G U62G
The self-cleavage of the first is higher: 0.948 for the first, 0.877 for the second.

First: U46A A51U
Second: U46A A51C
The self-cleavage of the first is higher: 1.01 for the first, 0.99 for the second.

First: G47U U61A
Second: G47U U61G
The self-cleavage of the first is higher: 0.984 for the first, 0.906 for the second.

Going from G47A G65U to G47A G65C, the self-cleavage falls from 0.858 to 0.79.

Going from G47U A59G to G47U A59C, the self-cleavage falls from 1 to 0.832.

First: U46C U69A
Second: U46C U69G
The self-cleavage of the first is lower: 0.997 for the first, 1.05 for the second.

Compared with U46C U69C, G47U C57G is lower in self-cleavage: 1.06 for the first, 0.311 for the second.

Going from G47U C57A to G47U C57U, the self-cleavage falls from 0.396 to 0.378.

Compared with G47A C63A, U46C U53G is lower in self-cleavage: 0.898 for the first, 0.872 for the second.

G47A and G47U are the same in self-cleavage: 1 for the first, 1 for the second.

Compared with G47C, C45U U67C is lower in self-cleavage: 1 for the first, 0.955 for the second.

Going from G47U G56A to G47U G56C, the self-cleavage falls from 0.966 to 0.885.

Compared with U46A U55A, U46A U55C is lower in self-cleavage: 0.964 for the first, 0.871 for the second.

Going from G47C U49C to G47C U49G, the self-cleavage rises from 0.981 to 1.

Going from U46C A51U to U46C A51G, the self-cleavage falls from 0.994 to 0.988.

First: G47A G58C
Second: G47A G58A
The self-cleavage of the first is lower: 0.951 for the first, 0.96 for the second.

First: U46G U55C
Second: U46G U55A
The self-cleavage of the first is higher: 0.936 for the first, 0.899 for the second.

Going from U46G U55G to U46G C66A, the self-cleavage falls from 0.83 to 0.786.

Going from U46G C66G to U46G C66U, the self-cleavage rises from 0.956 to 0.986.

Going from U46G G56U to U46G G56C, the self-cleavage falls from 0.959 to 0.65.

Compared with G47U A60C, G47U A60U is higher in self-cleavage: 0.386 for the first, 0.552 for the second.

Going from G47U A60G to U46G U69C, the self-cleavage rises from 0.912 to 1.07.

For G47A A60U, the self-cleavage was 0.475.
